Here are results for twelve molecules from patent publication US20230250157A1 (CALIFORNIA INSTITUTE OF TECHNOLOGY, published 2023).

In assay [1] the target is T1, SARS-CoV RBD (SARS-CoV, UniProt P59594 318-510). As to the kind of experiment: Beacon optofluidic screen: IgG secreted by single B cell, RBD on beads.
For assay [2], the target named is T2, SARS-CoV-2 WA1 RBD (SARS-CoV-2 WA1, UniProt P0DTC2 319-539).
T2 construct: range 319-539
As to the kind of experiment: X-ray crystallography of SEC-purified Fab-RBD complex (PDB 7UZD).

The target of assay [3] is T1, SARS-CoV RBD. As to the kind of experiment: ELISA, coated RBD, purified IgG. A general note: In an ELISA, binding on a coated surface is turned into a signal by an enzyme label.
Assay [4] has as its target T2, SARS-CoV-2 WA1 RBD. In words: Beacon optofluidic screen: IgG secreted by single B cell, RBD on beads.
Assay [5] deals with T2, SARS-CoV-2 WA1 RBD. As to the kind of experiment: X-ray crystallography of SEC-purified Fab-RBD complex.
In assay [6] the target is T2, SARS-CoV-2 WA1 RBD. As to the kind of experiment: ELISA, purified IgG.
Assay [7] concerns the target T2, SARS-CoV-2 WA1 RBD. As to the kind of experiment: X-ray crystallography of SEC-purified Fab-RBD complex (PDB 7UZC).

B1: M8a-25 (antibody, V domains shown)
VH: EVQLQQSVAELVRPGASVKLSCTASGFNIKNTYMHWVKQRPEQGLEWIGRIDPSIDHTRYAPKFQGKAVITAFTSSNTAYLQLSSLTSEDTAIYYCAREGGGNYPYYYAIDYWGQGTSVTVSS
VL: DIQMTQSSSSFSVSLGDRVTITCKASEDIYIRLAWYQQRPGNAPRLLISNAISLETGVPSRFSGSGFGKDHTLSITSLQTEDVATYYCQQYWSTPWTFGGGTKLEIK
Turning to B1, the binding result in the assay with SARS-CoV RBD [1] is “binds”.

B2: HSW-2 Fab (Fab, V domains shown)
VH: QVQLQQSGPELVKPGASVKISCKASGYVFSTSWMSWVKQRPGEGPEWIGRIYPRDGHSSSTGKFKDKATLTADKSSNTAYIHLSSLTSEDSAVYFCARDYGYYYFDYWGQGTTLTVSS
VL: DIQMTQSPASLSASVGEAVTITCRLSENVYSFLAWYQQKQGKSPQLLVYRAKTLAEGVPSRFSGSGSGTQFSLKINSLQPEDFGTYYCQHHYGTPPTFGGGTKLEIK
As to B2, the binding result in the assay with SARS-CoV-2 WA1 RBD [2] is “binds”.

B3: HSW-2 (antibody, V domains shown)
VH: B2 VH
VL: B2 VL
With B3, the binding result was “no binding (tested: up to 100 µg/mL IgG)” with SARS-CoV RBD [3] and “binds” in the assay with SARS-CoV-2 WA1 RBD [4].

B4: M8a-6 (antibody, V domains shown)
VH: QVQLQQPGTELVMPGASVKLSCKTSGYTFTHYWMHWVKQRPGEGLEWIGEIAPSDNYVKYNQKFKGKSTLSVDRSSSTAYMQLSSLTSEDSAVYFCARPDNSGYPVYFDYWGQGTSLTVSS
VL: DIVMTQSQKFMSTSLGDRVSISCKASQDVGTTVAWYQQKPGQSPKLLIYWASTRHTGVPDRFTGTGSGTDYTLTISSVAAEDLALYYCQQHYNTPYTFGGGTKLEIE
As for B4, the binding result with SARS-CoV-2 WA1 RBD [4] is listed as “binds”.

B5: M8a-6 Fab (Fab, V domains shown)
VH: B4 VH
VL: B4 VL
B5: the binding result with SARS-CoV-2 WA1 RBD [5] is “binds”.

B6: HSW-1 (antibody, V domains shown)
VH: QVQLQQPGAELVKPGTSMKLSCKASGYTFTSYWMHWVKQRPGQGLEWIGMIHPNSGSTKYNENFKSKATLTVDKSSSTAYMQFSSLTSEDSAVYYCVRSGSYYGTTYDYFDYWGQGTTLTVSS
VL: DIVLTQSPASLAVSLGQRATISCRASESVNIYGNSFMHWYQQKPGQPPKLLIFRASNLESGIPVRFSGSGSRTDFTLTINPVEADDVATYYCHQSNEDPFTFGSGTKLEIK
On to B6, for which the binding result is recorded as “no binding (tested: up to 100 µg/mL IgG)” with SARS-CoV RBD [3] and “binds” with SARS-CoV-2 WA1 RBD [4].

B7: M8a-3 (antibody, V domains shown)
VH: QVQLQQPGAELVLPGASVKLSCKASGYTFTNYWMHWVKQRPGHGLEWIGEIDPFDTYIKINQKFKGKSTLTVDTSSSTAYMQLSSLTSEDSAVYYCARPDSSGYPVYFDYWGQGTTLTVSS
VL: DIVMTQSHKFMSTSVGDRVSITCKASQDVGTYIAWYQQKPGQSPKLLIYWASTRHTGVPDRFTGSGSGTNYTLTISSVQAEDLALYHCQQHYSTPYTFGGGTKLEIK
On to B7, for which the binding result with SARS-CoV RBD [1] is given as “binds”.

B8: M8a-28 (antibody, V domains shown)
VH: QVQLQQPGAELVKPGASVKMSCKASGYNFNHYWISWVKQRPGQGLEWIGDIYPLSHFTTYNEKFTNRATLTVDTSSTTAYMQLNSLTSDDSAVFYCARWDYFDSRTFDYWGQGTTLTVSS
VL: DILLTQFPAILSVSPGERVSFSCRASQTIGTNIHWYQQRINGSPRLLIKYASESISGIPSRFSGSGSGTDFSLSINNVESEDIADYYCQQINSWPLTFGAGTKLDLK
As to B8, the binding result with SARS-CoV RBD [1] is recorded as “binds”.

B9: M8a-7 (antibody, V domains shown)
VH: QAYLQQSGAEMVRPGASVKMSCKASGYTFNNYNMHWVKQTPSQGLEWIGGFYPGNDDTAYSQKFKGKATLTVDKSSSTAFMHLSSLTSEDSAVYFCARSLGRYYAMDYWGQGTSVTVSS
VL: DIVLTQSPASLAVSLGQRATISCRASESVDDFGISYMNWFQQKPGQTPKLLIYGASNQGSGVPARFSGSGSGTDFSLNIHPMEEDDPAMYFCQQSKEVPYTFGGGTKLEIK
For B9, the binding result with SARS-CoV RBD [1] is “binds”.

B10: M8a-31 (antibody, V domains shown)
VH: EVQLKQSVAELVRPGASVKVSCTASGFNIKNIYMHWVKQRPEQGLDWIGRIDPANGNSRYAPKFQDKATITADTSSNTAYLQLSSLTSEDTAIYYCADEGWGFANWGQGTLVTVSA
VL: DIVMTQSPSSLTVTAGEKVTMSCKSSQSLLNSGNQKNYLTWYQQKVGQPPKLLIYWASTRDPGVPDRFTGSGFGTDFTLTISSVQAEDLAVYYCQNDYSYPLTFGAGTKVELK
For the molecule B10, the binding result with SARS-CoV-2 WA1 RBD [6] and with SARS-CoV RBD [1] was “binds” each time.

B11: M8a-34 Fab (Fab, V domains shown)
VH: QVQLQQPGAELVKPGASVKMSCKASGYTFITYWITWVKQRPGQGLEWIGDIYPGGGRTNYNEKFKSKATLTVDTSSSTAYMQLRSLTSEDSAVYYCARYDGNYVGYYYAMDYWGQGTSVTVSS
VL: DIVLTQSPVSLAVSLGQRATISCRASESVDFYGNSFIYWYQQKPGQAPKLLIYRASNLESGIPARFSGSGSRTDFTLTIHPVEADDVATYYCQQSIEDPRTFGGGTKLEIK
For the molecule B11, in the assay with SARS-CoV-2 WA1 RBD [7], the binding result is reported as “binds”.

B12: M8a-34 (antibody, V domains shown)
VH: B11 VH
VL: B11 VL
On to B12, for which the binding result with SARS-CoV RBD [1] and with SARS-CoV-2 WA1 RBD [4] was “binds” each time.
